Results from the supplement of paper PMC9112550, “Optimization of the antimicrobial peptide Bac7 by deep mutational scanning” (BMC Biology, 2022).

System: Escherichia coli TOP10
Assay: shrunken log2 fold change of peptide-encoding DNA abundance (4.5 h post-induction vs induction); higher = less antimicrobial activity (less host growth inhibition)
Details: time post-induction: 4.5 h; library: site-saturation at positions 5, 18, 19, 20
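Also: peptides expressed intracellularly from a pBAD plasmid library in pooled LB shake-flask culture, induced with 0.3% L-arabinose, DNA abundance read by NGS, three biological replicates, DESeq2 with apeglm shrinkage.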

Sequence	shrunken log2 fold change
RRIRQRPPRLPRPRPRPELQPRP	-0.0257
RRIRERPPRLPRPRPRPCPFPRP	-1.04
RRIRWRPPRLPRPRPRPYWAPRP	-0.298
RRIRSRPPRLPRPRPRPTIHPRP	-0.51
RRIRCRPPRLPRPRPRPMYVPRP	-0.766
RRIRERPPRLPRPRPRPPEKPRP	-0.0038
RRIRFRPPRLPRPRPRPETEPRP	-0.0257
RRIRPRPPRLPRPRPRPEAAPRP	1.13
RRIRGRPPRLPRPRPRPGVEPRP	1.46
RRIRNRPPRLPRPRPRPHGSPRP	-0.00146
RRIRSRPPRLPRPRPRPWQCPRP	-0.19
RRIRVRPPRLPRPRPRPDPAPRP	0.142
RRIRPRPPRLPRPRPRPENVPRP	-0.2
RRIRFRPPRLPRPRPRPKIGPRP	-0.0769
RRIRFRPPRLPRPRPRPEFSPRP	0.0686
RRIRPRPPRLPRPRPRPVKFPRP	0.184
RRIRLRPPRLPRPRPRPNWLPRP	0.0723
RRIRKRPPRLPRPRPRPQPLPRP	0.405
RRIRVRPPRLPRPRPRPCAVPRP	0.218
RRIRCRPPRLPRPRPRPPCYPRP	-0.265
RRIRIRPPRLPRPRPRPHIDPRP	-0.0031
RRIRHRPPRLPRPRPRPKFHPRP	-0.429

Sequence	shrunken log2 fold change
RRIRFRPPRLPRPRPRPVEDPRP	-0.264
RRIRKRPPRLPRPRPRPQKGPRP	-0.0581
RRIRARPPRLPRPRPRPQTKPRP	0.135
RRIRIRPPRLPRPRPRPTIWPRP	-0.157
RRIRQRPPRLPRPRPRPPDEPRP	0.0836
RRIRVRPPRLPRPRPRPHFIPRP	-0.304
RRIRKRPPRLPRPRPRPKPAPRP	1.11
RRIRIRPPRLPRPRPRPDMIPRP	-0.0965
RRIRPRPPRLPRPRPRPVVRPRP	0.116
RRIRWRPPRLPRPRPRPTFRPRP	-0.0799
RRIRSRPPRLPRPRPRPHRCPRP	-0.209
RRIRVRPPRLPRPRPRPMRKPRP	4.33
RRIRCRPPRLPRPRPRPHPCPRP	-0.579
RRIRARPPRLPRPRPRPFIMPRP	-0.507
RRIRRRPPRLPRPRPRPNGSPRP	0.183
RRIRERPPRLPRPRPRPCRQPRP	-0.157
RRIRNRPPRLPRPRPRPDASPRP	0.14
RRIRRRPPRLPRPRPRPSGPPRP	-0.0409
RRIRQRPPRLPRPRPRPCFWPRP	0.14
RRIRDRPPRLPRPRPRPLNTPRP	-0.0995
RRIRNRPPRLPRPRPRPDSEPRP	-0.0671
RRIRNRPPRLPRPRPRPGWSPRP	0.2

Sequence	shrunken log2 fold change
RRIRKRPPRLPRPRPRPDAQPRP	1.59
RRIRLRPPRLPRPRPRPFLGPRP	-0.0654
RRIRRRPPRLPRPRPRPASEPRP	0.182
RRIRFRPPRLPRPRPRPSIKPRP	-0.42
RRIRTRPPRLPRPRPRPDSNPRP	0.0255
RRIRHRPPRLPRPRPRPMHMPRP	-0.0761
RRIRSRPPRLPRPRPRPVWWPRP	0.131
RRIRGRPPRLPRPRPRPIFTPRP	0.284
RRIRVRPPRLPRPRPRPPLGPRP	0.554
RRIRFRPPRLPRPRPRPPPVPRP	1.43
RRIRHRPPRLPRPRPRPNCNPRP	-0.589
RRIRSRPPRLPRPRPRPALFPRP	0.069
RRIRVRPPRLPRPRPRPFRFPRP	0.0201
RRIRNRPPRLPRPRPRPGPYPRP	-0.00784
RRIRMRPPRLPRPRPRPPCHPRP	0.186
RRIRMRPPRLPRPRPRPYRYPRP	-0.133
RRIRERPPRLPRPRPRPMENPRP	-0.104
RRIRGRPPRLPRPRPRPCGFPRP	1.25
RRIRTRPPRLPRPRPRPSNGPRP	-0.126
RRIRRRPPRLPRPRPRPRQAPRP	0.801
RRIRGRPPRLPRPRPRPDMHPRP	0.512
RRIRLRPPRLPRPRPRPLNYPRP	-0.501

Sequence	shrunken log2 fold change
RRIRNRPPRLPRPRPRPLRGPRP	0.654
RRIRMRPPRLPRPRPRPIAQPRP	0.726
RRIRCRPPRLPRPRPRPIFKPRP	-0.323
RRIRERPPRLPRPRPRPPMDPRP	-0.214
RRIRTRPPRLPRPRPRPTSQPRP	-0.00402
RRIRYRPPRLPRPRPRPGMLPRP	-0.139
RRIRPRPPRLPRPRPRPFSHPRP	-0.402
RRIRPRPPRLPRPRPRPHRAPRP	0.402
RRIRTRPPRLPRPRPRPKQMPRP	0.0252
RRIRIRPPRLPRPRPRPYGPPRP	-1.06
RRIRDRPPRLPRPRPRPMEHPRP	0.208
RRIRWRPPRLPRPRPRPEKDPRP	-0.0712
RRIRERPPRLPRPRPRPFSHPRP	-0.153
RRIRKRPPRLPRPRPRPCWVPRP	0.259
RRIRDRPPRLPRPRPRPNAPPRP	0.209
RRIRARPPRLPRPRPRPDQMPRP	0.386
RRIRMRPPRLPRPRPRPVNMPRP	-0.292
RRIRDRPPRLPRPRPRPRGRPRP	0.614
RRIRRRPPRLPRPRPRPSWSPRP	-0.116
RRIRSRPPRLPRPRPRPGRWPRP	0.657
RRIRYRPPRLPRPRPRPVLGPRP	0.0727
RRIRQRPPRLPRPRPRPVQRPRP	0.862

Sequence	shrunken log2 fold change
RRIRYRPPRLPRPRPRPQFMPRP	-0.074
RRIRERPPRLPRPRPRPPFHPRP	-0.139
RRIRNRPPRLPRPRPRPPCQPRP	-0.294
RRIRRRPPRLPRPRPRPPKHPRP	0.39
RRIRMRPPRLPRPRPRPNDDPRP	0.196
RRIRVRPPRLPRPRPRPRIDPRP	-0.216
RRIRSRPPRLPRPRPRPPIFPRP	-0.576
RRIRPRPPRLPRPRPRPGLMPRP	0.184
RRIRSRPPRLPRPRPRPGKNPRP	-0.166
RRIRQRPPRLPRPRPRPPMTPRP	-0.268
RRIRTRPPRLPRPRPRPMPGPRP	0.106
RRIRARPPRLPRPRPRPDEYPRP	-0.0116
RRIRWRPPRLPRPRPRPHAVPRP	0.172
RRIRIRPPRLPRPRPRPIPAPRP	-0.0353
RRIRDRPPRLPRPRPRPHVPPRP	-0.076
RRIRQRPPRLPRPRPRPRDSPRP	0.0142
RRIRHRPPRLPRPRPRPFKCPRP	-0.0134
RRIRYRPPRLPRPRPRPKGEPRP	-0.212
RRIRRRPPRLPRPRPRPKEIPRP	0.205
RRIRKRPPRLPRPRPRPEYCPRP	0.109
RRIRMRPPRLPRPRPRPHNRPRP	-0.172
